The values that follow come from article PMC3355127.

Data set [1] can be described thus: SDS/2% agarose multimer gel of plasma, densitometry. The conditions noted are these: glycan lost; control: WT mVwf cDNA.
Data set [2] can be described thus: plasma VWF:Ag ELISA after hydrodynamic injection in VWF-/- mice. The note with it: glycan lost; control: WT mVwf cDNA. Background: ELISA stands for enzyme-linked immunosorbent assay.
Data set [3] in a line: whole-blood perfusion over collagen, 2500 s-1, platelet coverage. The conditions noted are these: glycan lost; control: blood of WT-VWF expressing mice.
Data set [4] is described as follows: VWF antigen ELISA, COS-7 supernatant. The note with it: glycan lost; control: WT mVwf.
Data set [5] can be described thus: VWF antigen ELISA, COS-7 lysate (intracellular retention). The conditions noted are these: glycan lost; control: WT mVwf.
The nature of data set [6]: in vivo NHS-biotin labelling, residual biotinylated VWF in plasma. The conditions noted are these: glycan lost; control: WT-mVWF.

Turning to murine VWF (mVWF): S1486A, the oligomerisation result in data set [1] is listed as “no change”. Also, the “expression_or_secretion, other: VWF:Ag, % of normal murine plasma” value in data set [2] is “no change”. Also, the “other: thrombus formation on collagen under flow, other: platelet surface coverage” value (“other: thrombus formation on collagen” below) in data set [3] is “decreases, 11.6±1.0 vs 15.8±0.9”.
In the case of murine VWF (mVWF): S1486A/S1487A, the oligomerisation result in data set [1] is listed as “no change”. Also, the “expression_or_secretion, other: VWF:Ag, % of normal murine plasma” value in data set [2] is “no change”.
On to murine VWF (mVWF): S1487A, for which, in data set [1], the oligomerisation entry was “no change”. Moreover, the “expression_or_secretion, other: VWF:Ag, % of normal murine plasma” value in data set [2] is reported as “no change”.
Consider murine VWF (mVWF): T1248A, for which the oligomerisation entry in data set [1] is recorded as “no change”. For the same substance, the “expression_or_secretion, other: VWF:Ag, % of normal murine plasma” value in data set [2] is on record as “no change”.
Turning to “murine VWF (mVWF): T1248A/T1255A/T1256A (cluster 1)”, the oligomerisation entry in data set [1] was “no change”. The “expression_or_secretion, other: VWF:Ag, % of normal murine plasma” value in data set [2] is on record as “no change”.
Turning to murine VWF (mVWF): T1255A, the oligomerisation entry in data set [1] is reported as “no change”. In addition, in data set [2], the “expression_or_secretion, other: VWF:Ag, % of normal murine plasma” value is given as “no change”. Besides, in data set [3], the “other: thrombus formation on collagen” value is reported as “decreases, 8.2±1.2 vs 15.8±0.9”.
With murine VWF (mVWF): T1255A/T1256A, the expression_or_secretion result in data set [4] is listed as “no change”. For the same substance, in data set [1], the oligomerisation entry was “no change”. For the same substance, the localisation_or_trafficking result in data set [5] was “no change”. The “expression_or_secretion, other: VWF:Ag, % of normal murine plasma” value in data set [2] is given as “decreases, 432±55 vs 833±76”. Also, the “other: thrombus formation on collagen” value in data set [3] was “decreases, 6.0±0.9 vs 15.8±0.9”. Besides, the “degradation_or_half_life, half_life” value in data set [6] is listed as “decreases, 3.0±0.3 vs 6.1±1”.
On to murine VWF (mVWF): T1256A, for which the oligomerisation result in data set [1] was “no change”. In data set [2], the “expression_or_secretion, other: VWF:Ag, % of normal murine plasma” value is listed as “no change”. The “other: thrombus formation on collagen” value in data set [3] is reported as “decreases, 6.4±1.2 vs 15.8±0.9”.
For murine VWF (mVWF): T1468A, the oligomerisation result in data set [1] is recorded as “no change”. The “expression_or_secretion, other: VWF:Ag, % of normal murine plasma” value in data set [2] was “no change”.
As to “murine VWF (mVWF): T1468A/T1477A/S1486A/S1487A (cluster 2)”, the oligomerisation entry in data set [1] was “no change”. Also, the “expression_or_secretion, other: VWF:Ag, % of normal murine plasma” value in data set [2] is given as “no change”.
In the case of murine VWF (mVWF): T1477A, the oligomerisation result in data set [1] is listed as “no change”. For the same substance, the “expression_or_secretion, other: VWF:Ag, % of normal murine plasma” value in data set [2] is “no change”.
Regarding murine VWF (mVWF): T1679A, in data set [1], the oligomerisation result was “no change”. The “expression_or_secretion, other: VWF:Ag, % of normal murine plasma” value in data set [2] is on record as “no change”.
Consider murine VWF (mVWF): T2298A, for which, in data set [1], the oligomerisation entry is recorded as “no change”. In addition, the “expression_or_secretion, other: VWF:Ag, % of normal murine plasma” value in data set [2] is given as “no change”.
